From publication PMC9723635 come the findings set out here.

The test system of data set [1] is RBPMS-A T/E. The data set can be described thus: EMSA. The following applies: apparent Kd, Hill fit; tRNA and heparin present; EMSA: 50 mM HEPES pH 7.2-7.9, 15 mM MgCl2, 25% glycerol, 5 mM DTT, 45 mM KCl, 5 ug tRNA, 20 fmol RNA, 25 min at 30 C, then 5 ug heparin 5 min at 30 C; 4% …. A general note: In EMSA bound probe runs differently from free probe, usually more slowly.

For a further data set, the system named is RBPMS-A T/A. The data set can be described thus: EMSA. The following applies: apparent Kd, Hill fit; tRNA and heparin present; EMSA: 50 mM HEPES pH 7.2-7.9, 15 mM MgCl2, 25% glycerol, 5 mM DTT, 45 mM KCl, 5 ug tRNA, 20 fmol RNA, 25 min at 30 C, then 5 ug heparin 5 min at 30 C; 4% ….
The subject of data set [2] is RBPMS-A T/E. Kind of data set: UV crosslinking. The following applies: 4 uM protein, with 20% HeLa nuclear extract, EMSA: 50 mM HEPES pH 7.2-7.9, 15 mM MgCl2, 25% glycerol, 5 mM DTT, 45 mM KCl, 5 ug tRNA, 20 fmol RNA, 25 min at 30 C, then 5 ug heparin 5 min at 30 C.

On to “Tpm1 exon 3 upstream intron EMSA RNA (three tandem CAC motifs)”, for which the Kd in the data set with RBPMS-A T/E [1] is 0.756 µM; with RBPMS-A T/A it was 0.268 µM. For Tpm1 UV-crosslinking RNA, the binding signal in the data set with RBPMS-A T/E [2] is 7.8 % of WT.
